Earlier results in publication PMC6503043.
Read-outs that look alike come from different tables or passages of the source.

Tests used:
CD28 (Homo sapiens) [1] = molecular target: CD28 (Homo sapiens) (UniProt P10747)
CD28 (Homo sapiens) [2] = molecular target: CD28 (Homo sapiens) (UniProt P10747); remark: listed apart in the source

Row | Kd (CD28 (Homo sapiens) [1]) [µM] | Kd (CD28 (Homo sapiens) [2]) [µM] | Substance
1 | 5 |  | B7-1 (from UniProt P33681)
2 |  | 20 | B7-2 (from UniProt P42081)
